Among the data in US20150050271A1 (published 2015) are EC50 and Kd values, retold here.

Substitutions are numbered along the chain they refer to. Numbers in names are those of the source.

For one assay, the target named is WT (3). Nature of the assay: ELISA. On the technique in general: ELISA stands for enzyme-linked immunosorbent assay.
Another assay deals with WT (2B). As to the kind of experiment: ELISA.
The target in the next assay is WT (1B). As to the kind of experiment: ELISA.
Another assay concerns the target WT (2A). Nature of the assay: ELISA.
In another assay the target is WT (1A). Nature of the assay: ELISA.
Assay [1] has as its target T1, MAD1 JCV VLPs (virus-like particles of JCV capsid protein VP1, MAD1 strain) (JC virus (JCV), MAD1, UniProt P03089 1-354). Nature of the assay: Biacore; Fab.
Assay [2] addresses T1, MAD1 JCV VLPs (virus-like particles of …). Nature of the assay: ELISA.
Assay [3] has the same target. As to the kind of experiment: Biacore; mAb. For orientation: SPR reads the build-up and loss of mass on a sensor chip optically.
For the next assay, the target named is Type 3 wt. As to the kind of experiment: Biacore; mAb; printed ≤.

T1 sequence (P03089 whole entry): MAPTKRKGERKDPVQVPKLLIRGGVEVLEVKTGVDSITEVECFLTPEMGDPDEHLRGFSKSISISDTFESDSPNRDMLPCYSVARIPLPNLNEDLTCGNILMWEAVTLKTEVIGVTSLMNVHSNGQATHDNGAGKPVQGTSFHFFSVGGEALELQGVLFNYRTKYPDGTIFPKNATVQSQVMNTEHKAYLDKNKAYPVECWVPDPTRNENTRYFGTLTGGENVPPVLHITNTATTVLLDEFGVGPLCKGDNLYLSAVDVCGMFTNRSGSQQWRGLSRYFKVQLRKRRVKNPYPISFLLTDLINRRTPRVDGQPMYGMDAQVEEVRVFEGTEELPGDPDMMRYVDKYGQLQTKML

B1: BIIB048 (antibody, V domains shown)
VH: QVQLVESGGGVVQPGRSLRLSCAASGFSFDRNYWIAWVRQAPGKGLEWVAVISAGGSGNTYYATWAKGRFTISRDNSKNTLYLQMNSLRAEDTAVYYCARFYSGGGYYAGYFTLWGQGTLVTVSS
VL: AIQLTQSPSSLSASVGDRVTITCQASQSIGNNLAWYQQKPGKAPKLLIYLASYLASGVPSRFSGSGSGTDFTLTISSLQPEDFATYYCQSSYYSPNDNAFGQGTKVEIK
For orientation: EC50 means the concentration that produces a half-maximal response. Low values mean an effect from little substance, high ones a need for much substance. Consider B1, for which the EC50 with WT (3), in the assay with WT (2B), with WT (1B), with WT (2A) and with WT (1A) was less than 0.1 nM in each case.

B2: H0/L0 Fab (antibody, V domains shown)
VH: B1 VH
VL: B1 VL
In general, Kd refers to the constant that tells how readily two partners part at equilibrium. A lower Kd goes with higher affinity. B2 gave a Kd in assay [1] of 50 nM. This counts as double-digit nanomolar.

B3: antibody 50/31-G (heavy chain H0 V50G, light chain L2-N31A, as told in paragraph 169) (antibody, V domains shown)
VH: B1 VH with V51G
VL: B1 VL with I2F, T22N, N31A, D70Q, I75V
As to B3, the EC50 in assay [2] is less than 0.1 nM.

B4: antibody 50/31-A (heavy chain H0 V50A, light chain L2 N31A) (antibody, V domains shown)
VH: B1 VH with V51A
VL: B1 VL with I2F, T22N, N31A, D70Q, I75V
In the case of B4, the Kd in assay [3] was 0.9 nM.

B5: 5031G (antibody, V domains shown)
VH: B1 VH with V51G
VL: B1 VL with I2F, T22N, N31A, D70Q, I75V
B5: the EC50 with WT (3), in the assay with WT (2B), with WT (1B), in the assay with WT (2A) and with WT (1A) was less than 0.1 nM each time.

B6: humanized R399 H0L0 (antibody, V domains shown)
VH: B1 VH
VL: B1 VL
In the case of B6, the EC50 in assay [2] is less than 0.1 nM.

B7: V50A/N31A Fab (antibody, V domains shown)
VH: B1 VH with V51A
VL: B1 VL with I2F, T22N, N31A, D70Q, I75V
In assay [1], B7 returned a Kd of 8.9 nM.

B8: H0/L0 mAb (antibody, V domains shown)
VH: B1 VH
VL: B1 VL
B8 gave a Kd in the assay with Type 3 wt of less than 0.01 nM.
